Broadly, the stoichiometry N is the number of molecules, sites or subunits per partner or assembly.

B3: biotin-MBP-Atf7IP(574–666) (domain or fragment, human, UniProt Q6VMQ6 574-666, looked up)
chain: EEEYEAEFQVKITAKGDINQKLQKVIQWLLEEKLCALQCAVFDKTLAELKTRVEKIECNKRHKTVLTELQAKIARLTKRFEAAKEDLKKRHEH
modifications: biotin (on the Avi-tag)
notes: also called AviTag-MBP-Atf7IP; source: E. coli, co-expressed with birA with 40μM biotin, purified (MBPTrap, Superdex 200); not shown: AviTag, N-terminal, kept; MBP, N-terminal, kept

The target in data set [1] is B3. Briefly: AlphaScreen or HTRF; His-sumo-Setdb1 on nickel chelate acceptor beads, biotin-MBP-Atf7IP(574–666) on streptavidin donor beads; 20nM each, or one at 20nM and the other 0–20nM; 50mM MOPS, 50mM CHAPS, 50mM NaF, 100μg/ml BSA, pH7; room temperature. As to conditions: both partners purified. (In general: In Alpha technology, singlet oxygen from a donor bead excites a nearby acceptor bead.)

The target of another data set is T1, GST-Setdb1(2–115) (human, UniProt Q15047 2-115).
T1 construct: also called GST-Setdb1(2–114); source: E. coli, purified (GSTTrap, Superdex 200); not shown: GST, N-terminal, kept
Nature of the data set: pull-down; 0.5 μM GST fusion on glutathione Sepharose beads; 1.5 μM hCRM1 with or without 4.5 μM Ran^GTP; MBP-Atf7IP(574–666) pre-incubated at 3-fold or 15-fold excess; TB buffer (20mM HEPES 7.4, 110mM potassium acetate, 2mM magnesium acetate, 10% glycerol, 2mM DTT, 0.005% Tween20); Coomassie SDS-PAGE. As to conditions: both partners purified.

Data set [2] deals with the molecule itself. Briefly: SEC; isolated MBP-Atf7IP(574–666), gel filtration with and without Tween 20. Background: SEC sorts molecules by how far they enter the pores of the column.
A further data set addresses T2, His-sumo-Setdb1(2–115) (human, UniProt Q15047 2-115).
T2 construct: source: E. coli (BL21DE3 or Rosetta2), purified (HisTrap, dialysis); not shown: His6, N-terminal, kept; SUMO, N-terminal, kept
Briefly: AlphaScreen or HTRF; His-sumo-Setdb1 on nickel chelate acceptor beads, biotin-MBP-Atf7IP(574–666) on streptavidin donor beads; 20nM each, or one at 20nM and the other 0–20nM; 50mM MOPS, 50mM CHAPS, 50mM NaF, 100μg/ml BSA, pH7; room temperature. As to conditions: both partners purified.

For a further data set, the target named is T3, MBP-Setdb1(2–115) (human, UniProt Q15047 2-115).
T3 construct: Printed mass 56.7 kDa; also called MBP-Setdb1(2–114); source: E. coli, co-expressed with its partners; complex purified (MBPTrap, Superdex 200); not shown: MBP, N-terminal, kept
Briefly: SEC-MALS; co-expressed complex purified by MBP affinity; Superdex 200 Increase 10/300 GL; about 400 μL at ~1 mg/mL. As to conditions: both partners purified.

Data set [3] deals with the molecule itself. Briefly: native MS; co-expressed complex purified, exchanged into 400 mM ammonium acetate pH 7.9, 1 mM DTT; 500 nM; HCD 220 V for fragments.
Data set [4] concerns the molecule itself. Nature of the data set: cross-linking; MBP-Atf7IP(574–666) C608S C612S in isolation, purified on amylose beads, non-reducing; SDS-PAGE with and without BME.

B1: 6Xhis-SUMO-Setdb1(Δα1- α2; residues 50–114) (domain or fragment, human, UniProt Q15047 50-114, looked up)
chain: KMDCVQQRKKQLAELETWVIQKESEVAHVDQLFDDASRAVTNCESLVKDFYSKLGLQYRDSSSED
notes: Setdb1, human, UniProt Q15047, residues 50–114 (helices α1 and α2 removed); source: E. coli (BL21DE3 or Rosetta2), purified (HisTrap, dialysis); not shown: His6, N-terminal, kept; SUMO, N-terminal, kept
Consider B1, for which the “binding as percent of WT” value in data set [1] was ~30 % of WT.

B2: 6Xhis-SUMO-Setdb1(Δα1; residues 35–114) (domain or fragment, human, UniProt Q15047 35-114, looked up)
chain: ISMEELRHFIDEELEKMDCVQQRKKQLAELETWVIQKESEVAHVDQLFDDASRAVTNCESLVKDFYSKLGLQYRDSSSED
notes: Setdb1, human, UniProt Q15047, residues 35–114 (helix α1 with NES#1 removed); source: E. coli (BL21DE3 or Rosetta2), purified (HisTrap, dialysis); not shown: His6, N-terminal, kept; SUMO, N-terminal, kept
As for B2, the “binding as percent of WT” value in data set [1] was ~80 % of WT.

Regarding B3, the binding result (in the data set with GST-Setdb1(2–115); in data set [2]; with His-sumo-Setdb1(2–115)) was “binds” each time.

B4: 6Xhis-SUMO-Atf7IP(574–666) (domain or fragment, human, UniProt Q6VMQ6 574-666, looked up)
chain: EEEYEAEFQVKITAKGDINQKLQKVIQWLLEEKLCALQCAVFDKTLAELKTRVEKIECNKRHKTVLTELQAKIARLTKRFEAAKEDLKKRHEH
notes: Printed mass 23.2 kDa; not shown: His6, N-terminal, kept; SUMO, N-terminal, kept
B4: in the data set with MBP-Setdb1(2–115), the “stoichiometry N” value was found to be 2 Atf7IP per Setdb1. For the same molecule, the binding result in data set [3] is “binds”.

B5: MBP-Atf7IP (574–666) C608S C612S (domain or fragment, human, UniProt Q6VMQ6 574-666, looked up)
chain: EEEYEAEFQVKITAKGDINQKLQKVIQWLLEEKLSALQSAVFDKTLAELKTRVEKIECNKRHKTVLTELQAKIARLTKRFEAAKEDLKKRHEH
notes: also called Atf7IP(C631); not shown: MBP, N-terminal, kept
Regarding B5, in data set [4], the binding result is reported as “binds”.

The values are drawn from publication doi:10.1101/2024.12.23.630145, “Setdb1 and Atf7IP form a hetero-trimeric complex that blocks Setdb1 nuclear export” (bioRxiv, 2024).
